Measured values: the supplement of paper PMC9170038

Test system: MS2 coat protein
Assay: apparent KD of MS2 coat protein; designed switch direction (-1 OFF switch, 1 ON switch): -1; higher = weaker reporter binding
Summary of the method: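 SNAP-549-labelled MS2 coat protein was titrated, doubling from 0.7 or 1.5 nM to 3 µM, over designed RNA switches transcribed on Illumina chips by stalled E. coli RNA polymerase. Runs were done without input, with 200 uM small-molecule ligand, or with an oligonucleotide input. Apparent KD is the per-design median over clusters of curve-fitted normalised fluorescence.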

[1] = input ligand: microRNA oligo, concentration not stated
[2] = Eterna round: R95, input ligand: microRNA oligo, concentration not stated

Row | Sequence | apparent KD of MS2 coat protein (input ligand: FMN 200 uM) [µM] | apparent KD of MS2 coat protein (input ligand: none) [µM] | apparent KD of MS2 coat protein [1] [µM] | apparent KD of MS2 coat protein [2] [µM]
1 | UCUACGUCAGGAUAUACAAGCGGUGCUCUGAUGCUGUCCAGACAUGAGGAUCACCCAUGUAGAAGGGACGACAA [Eternabot (L1) Solution 68] (Eterna round: R97, puzzle: Exclusion 2) | 0.0426 | 0.365 | – | –
2 | UCUCAGUCAGGAUAUCGUUAAUUUAAUUGUUUGUAUUAGUUCGAGAAGGGACAUGAGGAUCACCCAUGUACUCU [Ex4 #18] (Eterna round: R97, puzzle: Exclusion 4) | 0.0298 | 0.0188 | – | –
3 | UCUCUUGGGCAAGGAUAUCCUGCGCGGUUCCGGUUCGUGUCUGUCACAUGAGGAUCACCCAUGUGGGAGAAGGUGCCUGCGGUC [Design 77] (Eterna round: R96, puzzle: Exclusion NG 2) | 0.0245 | 0.0167 | 0.012 | –
4 | UCUUAACAUGAGGAUCACCCAUGUGAGGAUAUGAUGCAGCAGUGGUCUACGCUGUGCAUCAGAAGGUACAUGGG (puzzle: Exclusion 1) | – | – | – | 0.0268
5 | UCUUACUGAGGAUAUACUUAGAUUUACAUGAGGAUCACCCAUGUUCCUCUAUGUAUAUAUGUAGAAGGCAGAAGAU [Mat - Exclusion 5 - JL Mod - D47] (Eterna round: R97, puzzle: Exclusion 5) | 0.292 | 0.0356 | – | –
6 | UCUUAUUGCAAGGAUAUGCAAAUUAUUAUUAAUGCAGAAGGUGCUACAUGAGGAUCACCCAUGUUUCCGGGUUU [JR_E6_Sub042] (puzzle: Exclusion 6) | – | – | – | 0.0433
7 | UCUUCACAUGAGGAUCACCCAUGUGAGGAUAUGGUUUCGCUGGCCGUAGCCAGUGGAACCAGAAGGCGCGUGAU [Mat - Exclusion 1 - JL Mod - D23] (Eterna round: R97, puzzle: Exclusion 1) | 0.0896 | 0.0735 | – | –
8 | UCUUGUUGUCCGUGAGAAUACAUGAGGAUCACCCAUGUUAGUUUGAUUAUGAUGUGUAAGUUUGUUGCUCGUUUUAU [JR_STOV1_Sub070] (Eterna round: R97, puzzle: Sensor, turn-off variant 1) | 0.0364 | 0.0413 | – | –
9 | UGACAGGAGUAGGAUAUGCCCACCGUCCGACUGGCAGAAGGACUCACAUGAGGAUCACCCAUGUAGUUAUGUAC [Eternabot (L2) Solution 96] (Eterna round: R97, puzzle: Exclusion 6) | 0.0201 | 0.016 | – | –
10 | UGACAGGCUAGACGAACAAACAUGAGGAUCACCCAUGUCAUUCCAUGUCUGCGUCAUAAGUAGAUGCUCGUAUAUCG [Eternabot (Original) Solution 33] (Eterna round: R97, puzzle: Sensor, turn-off variant 1) | 0.0166 | 0.0181 | – | –
11 | UGACCUAAAGGAUAUACAUGAGGAUCACCCAUGUCUUCAGCUGCCGUAAGGGAUCUUAGUAGAAGGUUAGGUCG [Eternabot (L1) Solution 43] (Eterna round: R97, puzzle: Exclusion 3) | 1.36 | 0.084 | – | –
12 | UGAGAACUGCGAGGAUAUACAUGAGGAUCACCCAUGUAAUAGUGUGAGGCUUUGCCUCACACAAUGUAGAAGGCGCAGUUCUCU [Mat - Exclusion NG 2 - Mod of JL - D7] (Eterna round: R96, puzzle: Exclusion NG 2) | 0.0184 | 0.0119 | 0.0101 | –
13 | UGAGACUGAGGAUAUACUGGCCCAUAAAGUGGGUCGUGGGUACAUGAGGAUCACCCAUGUAGAAGGCAGCCUCG [Omei Repeat Sequence v6] (Eterna round: R97, puzzle: Exclusion 2) | 0.656 | 0.0554 | – | –
14 | UGAGACUGAGGAUAUACUUGCCCAUAAAGUGGGUAGUGGGUACAUGAGGAUCACCCAUGUAGAAGGCAGCCUCG [Omei Repeat Sequence v3] (Eterna round: R97, puzzle: Exclusion 2) | 0.597 | 0.0463 | – | –
15 | UGAGAGUGAGGAUAUACGUCGCUGGUCCAGAUGGACGCAUGACAUGAGGAUCACCCAUGUAGAAGGCAUUUCCC [Enxela Mod 8 - Jieux - Exclusion 2] (Eterna round: R97, puzzle: Exclusion 2) | 0.0619 | 0.0284 | – | –
16 | UGAGUCUAAGGAUAUCUGAGGCGCGACAUGAGGAUCACCCAUGUCUCCAAGGAGAGAGCUGGAGAAGGUAGCUGGA [Eternabot (L2) Solution 81] (Eterna round: R97, puzzle: Exclusion 5) | 0.0175 | 0.0186 | – | –
17 | UGAGUGCUGCGAGGAUAUACAUGAGGAUCACCCAUGUAAUCGUGUGAGGCAAAGCCUCACACGAAGUAGAAGGCGCAGUACUCA [Mat - Exclusion NG 2 - Mod of JL - D18] (Eterna round: R96, puzzle: Exclusion NG 2) | 0.0157 | 0.0186 | 0.0124 | –

Row | Sequence | apparent KD of MS2 coat protein (input ligand: FMN 200 uM) [µM] | apparent KD of MS2 coat protein (input ligand: none) [µM] | apparent KD of MS2 coat protein [1] [µM] | apparent KD of MS2 coat protein [2] [µM]
18 | UGAGUGCUGCGAGGAUAUACAUGAGGAUCACCCAUGUAAUCGUGUGAGGCUUUGCCUCACACGAAGUAGAAGGCGCAGUACUCU [JL ENG2 1.10] (Eterna round: R96, puzzle: Exclusion NG 2) | 0.012 | 0.0135 | 0.00984 | –
19 | UGAGUGCUGCGAGGAUAUACAUGAGGAUCACCCAUGUGGAUCUGUGAGGCUUUGCCUCACAGGAUGUAGAAGGCGCAGUACUCU [JL ENG2 1.19] (Eterna round: R96, puzzle: Exclusion NG 2) | 0.156 | 0.0274 | 0.0178 | –
20 | UGAGUGCUGCGAGGAUAUACAUGAGGAUCACCCAUGUGGUCCUGUGAGGCUUUGCCUCACAGGAUGUAGAAGGCGCAGUACUCU [JL ENG2 1.18] (Eterna round: R96, puzzle: Exclusion NG 2) | 0.0829 | 0.0174 | 0.0138 | –
21 | UGAGUGCUGCGAGGAUAUACAUGAGGAUCACCCAUGUUUUCCUGUGAGGCUUUGCCUCACAGGAUGUAGAAGGCGCAGUACUCU [JL ENG2 1.14] (Eterna round: R96, puzzle: Exclusion NG 2) | 0.00913 | 0.0121 | 0.00733 | –
22 | UGAGUGCUGCGAGGAUAUACAUGAGGAUCACCCAUGUUUUCGUGUGAGGCAAAGCCUCACACGAUGUAGAAGGCGCAGUACUCU [Mat - Exclusion NG 2 - Mod of JL - D35] (Eterna round: R96, puzzle: Exclusion NG 2) | 0.0132 | 0.0161 | 0.0107 | –
23 | UGAUCAGACCGAGGAUAUACAGGGAGGACGCACGUGAGUGCGUCCACUACAUGAGGAUCACCCAUGUAGAAGGCGGUCUGAUCU [JL ENG2 1.99] (Eterna round: R96, puzzle: Exclusion NG 2) | 0.319 | 0.0199 | 0.0169 | –
24 | UGAUCAGACCGAGGAUAUAUAUGUAGGACGCACGUGAGUGCGUCCAGUACAUGAGGAUCACCCAUGUAGAAGGCGGUCUGAUCU [JL ENG2 1.96] (Eterna round: R96, puzzle: Exclusion NG 2) | 0.0203 | 0.0136 | 0.00999 | –
25 | UGAUCUAGCGGAGGAUAUACAUGAGGAUCACCCAUGUAAGUCGCCUUACCGUAGUGAAGCAUCAUGUAGAAGGCCGCUAGAUCU [MOD4 ENG2 3.62 by JL (unstable but ms2 present in dot)] (Eterna round: R96, puzzle: Exclusion NG 2) | 0.153 | 0.0573 | 0.0199 | –
26 | UGAUGUAGAGGAUAUUGUAUGGCUCACAUGAGGAUCACCCAUGUAGGAUCACCUAGAGCCCGAGAAGGCUAGAGGU [Eternabot (L2) Solution 4] (Eterna round: R97, puzzle: Exclusion 5) | 0.047 | 0.0458 | – | –
27 | UGCAUGCUAGGAUAUACGAAACAUUAGGGUUCUUCGUAUGAACAUGAGGAUCACCCAUGUAGAAGGAGCGUGCU [Mod9 of JL-ex2-2.15 mat747 mod] (puzzle: Exclusion 2) | – | – | – | 0.0311
28 | UGCAUGCUAGGAUAUACGGGACAUUAGGGUUCGUCGUGUGGACAUGAGGAUCACCCAUGUAGAAGGAGCGUGCU [Mod3 of JL-ex2-2.15 mat747 mod] (puzzle: Exclusion 2) | – | – | – | 0.0782
29 | UGCCAAGCAGGAUAUGCCCGGAAUAACAUGAGGAUCACCCAUGUGACCGAUUGAUGUUCUGCAGAAGGGCAUGGAA [Mat - Exclusion 5 - Eli Mod - D2] (Eterna round: R97, puzzle: Exclusion 5) | 0.0172 | 0.0357 | – | –
30 | UGCGAGUAAGGAUAUUCGCGACCGCCCACAAGGGCAGUCGAGAAGAAGGUACUUGAGGAUCACCCAAGUCCUAA [Quondius] (Eterna round: R97, puzzle: Exclusion 4) | 0.0898 | 0.0208 | – | –
31 | UGCGGGCUUUUGAGACCUCACAUGAGGAUCACCCAUGUGCUCGUCUUAUGGGCCGGCCGGCCGUUGGCCGGCCGGCC [-44, -68.1 kcal, A 12%] (Eterna round: R97, puzzle: Sensor, turn-off variant 1) | 0.0702 | 0.0678 | – | –
32 | UGCUACGGAGGAUAUACAUGAGGAUCACCCAUGUGUGAGAUUAGGCCGAGAGGCCAAUGUAGAAGGCCGUAGCU [jl-ex3-4.21 jl mod] (Eterna round: R97, puzzle: Exclusion 3) | 0.339 | 0.282 | – | –
33 | UGGAAGUGAGGAUAUCCAAUAUAUGACAUGAGGAUCACCCAUGUUUCCACUCGUACCUCCGGAGAAGGCACAAGGU [Ex5 #56] (Eterna round: R97, puzzle: Exclusion 5) | 0.0565 | 0.0573 | – | –
